# Source: US8969060B2, “Modified glucose dehydrogenase” (Ikeda Food Research Co., Ltd., priority 2011, dated 2015)
# Changes are numbered by the printed parent chain. Numbers in names are those of the source. Where “and” joins values, the source holds several entries; their conditions need not be identical. Equal entries are not always repeated.
# B1: G426H: modified GLD: SEQ ID NO: 1 with substitution G426H (protein, listed as Aspergillus terreus)
# chain: MLGKLSFLSALSLAVAAPLSNSTSAKYDYIVIGGGTSGLAVANRLSEDPNVNVLILEAGGSVWNNPNVTNVDGYGLAFGSDIDWQYQSVNQPYGGNLSQVLRAGKALGGTSTINGMAYTRAEDVQIDAWETIGNTGWTWKNLFPYYRKSENFTVPTKSQTSLGASYEAGAHGHEGPLDVAFTQIESNNLTTYLNRTFQGMGLPWTEDVNGGKMRGFNLYPSTVNLEEYVREDAARAYYWPYKSRPNLHVLLNTFANRIVWDGEAHDGHITASGVEITSRNGTVRVINAEKEVIVSAGALKSPAILELSGIGNPSVLDKHNIPVKVNLPTVGENLQDQVNSHMDASGNTSISGTKAVSYPDVYDVFGDEAESVAKQIRANLKQYAADTAKANGNIMKAADLERLFEVQYDLIFKGRVPIAEVLNYPHSATSVFAEFWALLPFARGSVHIGSSNPAEFPVINPNYFMLDWDAKSYVAVAKYIRRSFESYPLSSIVKESTPGYDVIPRNASEQSWKEWVFDKNYRSNFHPVGTAAMMPREIGGVVDERLNVYGTTNVRVVDASVLPFQVCGHLVSTLYAVAERAADLIKADAGRR
# modifications: SIGNAL (1)..(19)
# B2: G426I: modified GLD: SEQ ID NO: 1 with substitution G426I (protein, listed as Aspergillus terreus)
# chain: B1 chain with H426I
# modifications: SIGNAL (1)..(19)
# B3: G426K: modified GLD: SEQ ID NO: 1 with substitution G426K (protein, listed as Aspergillus terreus)
# chain: B1 chain with H426K
# modifications: SIGNAL (1)..(19)
# B4: G426L: modified GLD: SEQ ID NO: 1 with substitution G426L (protein, listed as Aspergillus terreus)
# chain: B1 chain with H426L
# modifications: SIGNAL (1)..(19)
# B5: G426M: modified GLD: SEQ ID NO: 1 with substitution G426M (protein, listed as Aspergillus terreus)
# chain: B1 chain with H426M
# modifications: SIGNAL (1)..(19)
# B6: G426N: modified GLD: SEQ ID NO: 1 with substitution G426N (protein, listed as Aspergillus terreus)
# chain: B1 chain with H426N
# modifications: SIGNAL (1)..(19)
# B7: G426P: modified GLD: SEQ ID NO: 1 with substitution G426P (protein, listed as Aspergillus terreus)
# chain: B1 chain with H426P
# modifications: SIGNAL (1)..(19)
# B8: G426R: modified GLD: SEQ ID NO: 1 with substitution G426R (protein, listed as Aspergillus terreus)
# chain: B1 chain with H426R
# modifications: SIGNAL (1)..(19)
# B9: G426S: modified GLD: SEQ ID NO: 1 with substitution G426S (protein, listed as Aspergillus terreus)
# chain: B1 chain with H426S
# modifications: SIGNAL (1)..(19)
# B10: G426T: modified GLD: SEQ ID NO: 1 with substitution G426T (protein, listed as Aspergillus terreus)
# chain: B1 chain with H426T
# modifications: SIGNAL (1)..(19)
# B11: G426W: modified GLD: SEQ ID NO: 1 with substitution G426W (protein, listed as Aspergillus terreus)
# chain: B1 chain with H426W
# modifications: SIGNAL (1)..(19)
# B12: G426Y: modified GLD: SEQ ID NO: 1 with substitution G426Y (protein, listed as Aspergillus terreus)
# chain: B1 chain with H426Y
# modifications: SIGNAL (1)..(19)
# B13: G426V: modified GLD: SEQ ID NO: 1 with substitution G426V (protein, listed as Aspergillus terreus)
# chain: B1 chain with H426V
# modifications: SIGNAL (1)..(19)
# B14: V431F: modified GLD: SEQ ID NO: 1 with substitution V431F (protein, listed as Aspergillus terreus)
# chain: B1 chain with H426G, V431F
# modifications: SIGNAL (1)..(19)
# B15: F432T: modified GLD: SEQ ID NO: 1 with substitution F432T (protein, listed as Aspergillus terreus)
# chain: B1 chain with H426G, F432T
# modifications: SIGNAL (1)..(19)
# B16: F432V: modified GLD: SEQ ID NO: 1 with substitution F432V (protein, listed as Aspergillus terreus)
# chain: B1 chain with H426G, F432V
# modifications: SIGNAL (1)..(19)
# B17: F432I: modified GLD: SEQ ID NO: 1 with substitution F432I (protein, listed as Aspergillus terreus)
# chain: B1 chain with H426G, F432I
# modifications: SIGNAL (1)..(19)
# B18: F432K: modified GLD: SEQ ID NO: 1 with substitution F432K (protein, listed as Aspergillus terreus)
# chain: B1 chain with H426G, F432K
# modifications: SIGNAL (1)..(19)
# B19: F432M: modified GLD: SEQ ID NO: 1 with substitution F432M (protein, listed as Aspergillus terreus)
# chain: B1 chain with H426G, F432M
# modifications: SIGNAL (1)..(19)
# B20: F432Q: modified GLD: SEQ ID NO: 1 with substitution F432Q (protein, listed as Aspergillus terreus)
# chain: B1 chain with H426G, F432Q
# modifications: SIGNAL (1)..(19)
# B21: F432R: modified GLD: SEQ ID NO: 1 with substitution F432R (protein, listed as Aspergillus terreus)
# chain: B1 chain with H426G, F432R
# modifications: SIGNAL (1)..(19)
# B22: G426A: modified GLD: SEQ ID NO: 1 with substitution G426A (protein, listed as Aspergillus terreus)
# chain: B1 chain with H426A
# modifications: SIGNAL (1)..(19)
# B23: G426C: modified GLD: SEQ ID NO: 1 with substitution G426C (protein, listed as Aspergillus terreus)
# chain: B1 chain with H426C
# modifications: SIGNAL (1)..(19)
# B24: G426D: modified GLD: SEQ ID NO: 1 with substitution G426D (protein, listed as Aspergillus terreus)
# chain: B1 chain with H426D
# modifications: SIGNAL (1)..(19)
# Assay: Relative enzymatic activity of GLD (DCIP/1-m-PMS, plate reader, yeast culture supernatant) with proflavin hydrochloride present
# Format: biochemical
# Conditions: site-specific mutants, inhibitor final concentration 1 mM
# Method in brief: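 Culture supernatant diluted and mixed with reagent of phosphate buffer pH 7.0, 1.0 M D-glucose, 3 mM DCIP, 3 mM 1-m-PMS and methanol (0.1:1:0.14:0.2:0.06). DCIP absorbance decrease at 600 nm followed; proflavin hydrochloride in methanol replaced methanol at 1 mM final. Activity expressed as % of inhibitor-free blank.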
row,Molecule,Relative Activity [%] Proflavin hydrochloride
1,B1,48.7%
2,B2,63.4%
3,B3,65.4%
4,B4,63.7%
5,B5,58.8%
6,B6,51.9%
7,B7,33.3%
8,B8,43.0%
9,B9,58.0%
10,B10,58.4%
11,B11,47.8%
12,B12,47.5%
13,B13,59.9%
14,B14,57.7%
15,B15,80.2%
16,B16,70.3%
17,B17,80.9%
18,B18,79.3%
19,B19,71.1% and 66.1%
20,B20,67.3%
21,B21,73.7% and 72.6%
22,B22,51.2%
23,B23,64.1%
24,B24,34.2%

# Assay: Relative enzymatic activity of GLD (DCIP/1-m-PMS, plate reader, yeast culture supernatant) with 1,10-phenanthroline present
# Format: biochemical
# Conditions: site-specific mutants, inhibitor final concentration 1 mM
# Method in brief: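 Yeast transformants grown in YPD, 30° C., 24 h; diluted culture supernatant assayed in phosphate buffer pH 7.0 with D-glucose, DCIP and 1-m-PMS, DCIP absorbance change at 600 nm. Relative activity (%) = activity with 1 mM 1,10-phenanthroline (final, replacing methanol) divided by activity without it.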
row,Molecule,"Relative Activity [%] 1,10-Phenanthroline"
1,B1,54.9%
2,B2,93.2%
3,B3,94.3%
4,B4,91.2%
5,B5,78.3%
6,B6,69.6%
7,B7,56.1%
8,B8,71.5%
9,B9,80.9%
10,B10,88.5%
11,B11,61.0%
12,B12,61.6%
13,B13,90.3%
14,B14,82.1%
15,B15,89.9%
16,B16,80.2%
17,B17,91.8%
18,B18,92.1%
19,B19,62.5% and 74.2%
20,B20,59.3%
21,B21,86.2% and 94.2%
22,B22,68.7%
23,B23,78.0%
24,B24,56.5%
